# Experimental data from US20180334496A1 (KODIAK SCIENCES, published 2018).
# “And” between values parts separate entries of the source, which are not always exact repeats. Equal entries are not always repeated. Where two headings read alike, the source gives them in different places.
# Experiments:
# [1] = target: T1, recombinant human CFD mutant 1 (R157A, R207A), His-tagged (human, UniProt P00746 26-253); assay: ELISA
# T1 construct: positions are linear positions in the mature protein; also called rhCFD-mut1-His; Mut1
# [2] = target: T2, human complement factor D purified from serum (human, UniProt P00746 26-253); assay: SPR MX96
# T2 construct: serum-purified (CompTech); also called hCFD-Comptech; CFD
# [3] = target: T3, recombinant cynomolgus CFD, His-tagged (cynomolgus); assay: SPR MX96
# T3 construct: also called rcyCFD-His; recombinant Cyno-CFD
# [4] = target: T4, recombinant human CFD, His-tagged (human, UniProt P00746 26-253); assay: SPR MX96
# T4 construct: also called rhCFD-His
# [5] = target: T2, human complement factor D purified from …
# [6] = target: T1, recombinant human CFD mutant 1 (R157A, …); assay: ELISA, Mut1 Binding, Bin 3
# [7] = target: human Complement Factor D (CFD), purified from human serum (human, UniProt P00746 26-253); assay: cell-based or functional assay
# purified human C1q = target: T5, purified human C1q (human, UniProt P02745 23-245; P02746 28-253; P02747 29-245); assay: ELISA, antibody coated in a 1:2 titration from 10 ug/mL, purified human C1q at 5 ug/mL, HRP anti-human C1q
# T5 construct: also called Complement C1q
# Histidine-tagged FcγRI = Histidine-tagged FcγRI (UniProt P12314 16-288, limits assumed); assay: SPR (Biacore T200, 25 C), His-tagged FcγRI captured on anti-His CM5 chip, antibody injected, single cycle kinetics
# [8] = target: Histidine-tagged FcγRIIIa (UniProt P08637 17-208, limits assumed); assay: SPR (Biacore T200, 25 C), His-tagged FcγRIIIa captured on anti-His CM5 chip, antibody injected, single cycle kinetics
# [9] = target: T6, serum purified human Complement Factor D (human, UniProt P00746 26-253); assay: SPR Biacore, antibody on protein A chip, single cycle kinetics, 25 C;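 note: antibodies captured to roughly 70 RU on the protein A surface in HBS-EP+ running buffer, with kinetic constants derived by BIAevaluation fitting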
# T6 construct: Serum purified protein flowed over the captured antibodies; also called CFD; human CFD
# [10] = target: T6, serum purified human Complement Factor D; assay: SPR Biacore, antibody on protein A chip, single cycle kinetics, 37 C;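 note: antibodies captured on the protein A surface to roughly 70 RU in HBS-EP+ buffer, with rate and affinity constants fitted using BIAevaluation software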
# [11] = target: T6, serum purified human Complement Factor D; assay: SPR Biacore, antibody on protein A chip, single cycle kinetics, 25 C; earlier run in the table (r34, Rmax 14.8);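 for koff: antibodies captured to roughly 70 RU on the protein A surface in HBS-EP+ running buffer, with kinetic constants derived by BIAevaluation fitting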;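 for kon: antibodies captured to roughly 70 RU on the protein A surface in HBS-EP+ running buffer, with kinetic constants derived by BIAevaluation fitting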
# [12] = target: T6, serum purified human Complement Factor D; assay: SPR Biacore, antibody on protein A chip, single cycle kinetics, 37 C; earlier run in the table (r34, Rmax 17.1);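 for kon: antibodies captured on the protein A surface to roughly 70 RU in HBS-EP+ buffer, with rate and affinity constants fitted using BIAevaluation software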
# [13] = target: T1, recombinant human CFD mutant 1 (R157A, …); assay: ELISA; remark: listed apart in the source
# [14] = target: T1, recombinant human CFD mutant 1 (R157A, …); assay: SPR MX96
# [15] = target: T2, human complement factor D purified from …; remark: listed apart in the source
# T1 sequence (P00746 26-253 R182A/R232A limits assumed): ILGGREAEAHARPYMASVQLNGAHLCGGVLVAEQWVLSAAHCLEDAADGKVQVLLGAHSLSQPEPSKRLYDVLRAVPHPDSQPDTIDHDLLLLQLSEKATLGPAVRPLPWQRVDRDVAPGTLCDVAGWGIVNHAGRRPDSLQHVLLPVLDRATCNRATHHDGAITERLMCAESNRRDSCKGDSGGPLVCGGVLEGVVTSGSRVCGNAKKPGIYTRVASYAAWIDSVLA
# T2 sequence (P00746 26-253): as the sequence (P00746 26-253 R182A/R232A limits assumed) above, with A157R, A207R counted along it
# T6 sequence (P00746 26-253): as the sequence (P00746 26-253 R182A/R232A limits assumed) above, with A157R, A207R counted along it
# T4 sequence (P00746 26-253 limits assumed): as the sequence (P00746 26-253 R182A/R232A limits assumed) above, with A157R, A207R counted along it
# human Complement Factor D (CFD), purified from human serum, sequence (P00746 26-253): as the sequence (P00746 26-253 R182A/R232A limits assumed) above, with A157R, A207R counted along it
# Histidine-tagged FcγRI, sequence (P12314 16-288 limits assumed): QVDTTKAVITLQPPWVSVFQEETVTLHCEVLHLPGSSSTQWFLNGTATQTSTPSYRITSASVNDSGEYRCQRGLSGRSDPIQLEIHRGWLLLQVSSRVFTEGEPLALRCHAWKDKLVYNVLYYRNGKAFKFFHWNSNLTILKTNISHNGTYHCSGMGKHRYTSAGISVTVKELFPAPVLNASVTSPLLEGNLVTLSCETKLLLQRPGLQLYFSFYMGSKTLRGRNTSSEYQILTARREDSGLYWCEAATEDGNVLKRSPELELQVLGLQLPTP
# Histidine-tagged FcγRIIIa, sequence (P08637 17-208 limits assumed): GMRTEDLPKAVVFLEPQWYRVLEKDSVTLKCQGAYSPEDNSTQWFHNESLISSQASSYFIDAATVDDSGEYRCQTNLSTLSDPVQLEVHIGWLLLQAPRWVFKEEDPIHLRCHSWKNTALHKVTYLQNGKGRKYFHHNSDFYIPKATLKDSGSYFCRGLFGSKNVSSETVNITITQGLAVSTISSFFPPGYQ
# T5 sequence (P02745 23-245 limits assumed, chain 1 of 3): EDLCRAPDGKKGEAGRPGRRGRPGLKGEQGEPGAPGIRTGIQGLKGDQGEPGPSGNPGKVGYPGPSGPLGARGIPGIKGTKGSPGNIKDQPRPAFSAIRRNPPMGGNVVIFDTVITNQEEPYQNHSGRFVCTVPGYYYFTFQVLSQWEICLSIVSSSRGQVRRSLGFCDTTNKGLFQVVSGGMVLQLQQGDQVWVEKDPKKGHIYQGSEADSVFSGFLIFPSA
# T5 sequence (P02746 28-253 limits assumed, chain 2 of 3): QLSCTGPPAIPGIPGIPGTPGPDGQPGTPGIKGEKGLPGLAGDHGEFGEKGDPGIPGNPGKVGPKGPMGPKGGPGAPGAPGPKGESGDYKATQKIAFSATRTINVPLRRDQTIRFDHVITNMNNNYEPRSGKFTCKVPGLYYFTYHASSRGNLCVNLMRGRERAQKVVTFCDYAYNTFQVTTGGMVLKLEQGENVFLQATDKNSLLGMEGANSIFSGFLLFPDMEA
# T5 sequence (P02747 29-245 limits assumed, chain 3 of 3): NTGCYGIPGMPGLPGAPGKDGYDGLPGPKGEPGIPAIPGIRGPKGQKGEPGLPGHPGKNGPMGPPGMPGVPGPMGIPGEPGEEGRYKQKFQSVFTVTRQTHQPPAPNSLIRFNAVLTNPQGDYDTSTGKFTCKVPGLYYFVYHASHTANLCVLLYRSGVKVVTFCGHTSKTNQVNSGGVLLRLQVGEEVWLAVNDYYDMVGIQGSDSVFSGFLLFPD
Mut1 Binding (% wt) [1] [% wt],Kd [2] [nM],Kd [3] [nM],Kd [4] [nM],Kd [5] [nM],binding result [6],Binder,further results
7.64,5.3,6,4.1,1770,no binding,"KCD023 (antibody, V domains shown, chimeric) VH: EVLLQQSGPELVKPGASVKIPCKASGYTFTDYNIDWVKQSHGKSLEWIGDINPNNGGINYNQKFKGKATLTVDKSSSTAYMELRSLTSEDTAVYYCGTGDYAYWGQGTLVTVSA VL: QIVLTQSPAFMSASPGEKVTLTCSASSSVSSSYLYWYQQKPGSSPKLWIYSTSNLASGVPGRFSGSGSGTSYSLTISSMEAEDAASYFCHQWTSYPPTFGAGTKLELK",
,,,,,,"OG1965 (antibody, IgG1, humanized IgG1 kappa with L234A, L235A, G237A and L443C (EU); also called 34I54I59D84S/54R101V; 34I54I59D84S (heavy) / 54R101V (light)) heavy: EVQLVESGGGLVQPGGSLRLSCAASGYTFTDYYINWVRQAPGKGLEWIGDINPITGDTDYNADFKRRFTFSLDTSKSTAYLQMSSLRAEDTAVYYCTREGPSFAYWGQGTLVTVSSASTKGPSVFPLAPSSKSTSGGTAALGCLVKDYFPEPVTVSWNSGALTSGVHTFPAVLQSSGLYSLSSVVTVPSSSLGTQTYICNVNHKPSNTKVDKKVEPKSCDKTHTCPPCPAPEAAGAPSVFLFPPKPKDTLMISRTPEVTCVVVDVSHEDPEVKFNWYVDGVEVHNAKTKPREEQYNSTYRVVSVLTVLHQDWLNGKEYKCKVSNKALPAPIEKTISKAKGQPREPQVYTLPPSREEMTKNQVSLTCLVKGFYPSDIAVEWESNGQPENNYKTTPPVLDSDGSFFLYSKLTVDKSRWQQGNVFSCSVMHEALHNHYTQKSLSCSPGK light: DIQLTQSPSSLSASVGDRVTITCRSSQTIVHSNGDTYLEWYQQKPGKAPNLLIRKVSNRFSGVPSRFSGSGSGTDFTLTISSLQPEDFATYYCFQGSHVPVTFGQGTKVEIKRTVAAPSVFIFPPSDEQLKSGTASVVCLLNNFYPREAKVQWKVDNALQSGNSQESVTEQDSKDSTYSLSSTLTLSKADYEKHKVYACEVTHQGLSSPVTKSFNRGEC","EC50, block of C3bB cleavage (Bb ELISA) [7]: 1.9 nM; EC50, block of Factor B cleavage (western blot) [7]: 7 nM; binding result (purified human C1q): no binding (tested: 10 ug/mL); binding result (Histidine-tagged FcγRI): no binding; binding result [8]: no binding"
,,,,,,"54I59D / 54G101V (antibody, V domains shown, KCD119 TAF variant; full antibody captured on protein A; also called 54I59D / 4G101V 5) VH: EVQLVESGGGLVQPGGSLRLSCAASGYTFTDYYMNWVRQAPGKGLEWIGDINPITGDTDYNADFKRRFTFSLDTSKSTAYLQMNSLRAEDTAVYYCTREGPSFAYWGQGTLVTVSS VL: DIQLTQSPSSLSASVGDRVTITCRSSQTIVHSNGDTYLEWYQQKPGKAPNLLIGKVSNRFSGVPSRFSGSGSGTDFTLTISSLQPEDFATYYCFQGSHVPVTFGQGTKVEIK",koff [9]: 9.56e-05 s⁻¹; kon [9]: 1.15e+07 M⁻¹ s⁻¹ and 5.91e+06 M⁻¹ s⁻¹; kon [10]: 2.78e+07 M⁻¹ s⁻¹ and 1.36e+07 M⁻¹ s⁻¹; Kd [11]: 0.00833 nM; Kd [12]: 0.00774 nM
,3.8,4.9,3.3,,,"KCD070 (antibody, V domains shown, chimeric) VH: EIQLQQTGPELVKPGASVKISCKASGYSFTDYIILWVKQSHGKSLEWIGNINPYYDYTSYNLKFKGKATLTVDKSSSTAYMQLNSLTSEDSAVYYCARSDGYYGGDYWGQGTSVTVSS VL: DIVMTQSHKFMSTSVGDRVSITCKASQDVGTAVAWYQQKPGQSPKLLIYWASTRHTGVPDRFTGSGSGTDFTLTINNVQSEDLADYFCQQYSSYPWTFGGGTTLEIK",Mut1 Binding (% wt) [13]: 84.6 % wt; Kd [14]: 0.7 nM; Kd [15]: 1.77 nM
5.15,5.6,9.9,4,3.47,no binding,"KCD009 (antibody, V domains shown, chimeric) VH: QIQLVQSGPELKKPGETVKISCKASGYIFRNYGMNWVKQGPGKGLKWMGWINTYTGEPTYADDFKGRFAFSLETSASTAYLQISNLKNEDTATYFCVRDGPGFAYWGQGTLVTVSA VL: DVLMTQTPLSLPVSLGDQASISCRSSLIIEHSDGNTYLEWYLQKPGQSPKLLIYKVSNRFSGVPDRFSGSGSGTDFTLKISRVEADDLGVYYCFQGSHVPVTFGAGTNLELK",
